Numbering of substitutions follows the chain as printed.

For the assay, the target named is T1, Human ST2 (human, UniProt Q01638 19-328, limits assumed).
T1 construct: also called human ST2 protein; Interleukin 1 receptor-like 1
T1 sequence (looked up): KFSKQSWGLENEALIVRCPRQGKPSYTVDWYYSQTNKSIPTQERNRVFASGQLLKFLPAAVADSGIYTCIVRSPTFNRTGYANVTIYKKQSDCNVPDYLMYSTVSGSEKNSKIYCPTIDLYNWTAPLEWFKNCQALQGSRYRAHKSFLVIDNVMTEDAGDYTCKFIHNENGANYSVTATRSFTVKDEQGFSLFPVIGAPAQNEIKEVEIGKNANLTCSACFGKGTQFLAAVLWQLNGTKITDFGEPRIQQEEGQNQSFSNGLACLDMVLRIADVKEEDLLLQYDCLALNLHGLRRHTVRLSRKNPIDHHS
The experiment in a line: SPR (Carterra), antibody immobilized, ST2 analyte. The procedure: Binding of the reformatted human ST2 antibodies to the human and mouse ST2 proteins was evaluated by surface plasmon resonance (SPR), using a high throughput antibody screening and characterization platform from Carterra (Salt Lake City, Utah).

B1: Human ST2 IgG1 Antibody 62 (antibody, V domains shown)
VH: QVQLVQSGAEVKKPGSSVKVSCKASGYIFTNYWIQWVRQAPGQGLEWMGGIIPIFETANYAQKFQGRVTITADDSTSTAYMELSSLRSEDTAVYYCARLGDRGDFDYWGQGTLVTVSS
VL: DIVMTQSPDSLAVSLGERATINCKSSQSISHSPNTRDYLAWYQQKPGQPPKLLIYWASTRESGVPDRFSGSGSGTDFTLTISSLQAEDVAVYYCQQYYRFPLAFGQSTKVEIKR
notes: IgG1; also called ST2 Antibody 62
B1 came in with a Kd of 71 nM, a koff of 0.068 s⁻¹ and a kon of 960000 M⁻¹ s⁻¹.

B2: Human ST2 IgG1 Antibody 68 (antibody, V domains shown)
VH: QVQLVQSGAEVKKPGSSVKVSCKASGGTFSSYAISWVRQAPGQGLEWMGGIIPVVGSPDYAQRFQGRVTITADESTSTAYMELSSLRSEDTAVYYCARHSIVGATATSMDVWGKGTTVTVSS
VL: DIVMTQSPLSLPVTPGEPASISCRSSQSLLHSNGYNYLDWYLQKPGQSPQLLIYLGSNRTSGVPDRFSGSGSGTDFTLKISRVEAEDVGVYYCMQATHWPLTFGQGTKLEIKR
notes: IgG1; also called ST2 Antibody 68
Molecule B2 had a Kd of 704 nM, a koff of 0.13 s⁻¹ and a kon of 190000 M⁻¹ s⁻¹.

B3: Human ST2 IgG1 Antibody 53 (antibody, V domains shown)
VH: QVQLVQSGAEVKKPGSSVKVSCKASGGTFSSYAISWVRQAPGQGLEWMGGIIPIFGTANYAQKFQGRVTITADESTSTAYMELSSLRSEDTAVYYCARVPADYYYYYYGMDVWGQGTTVTVSS
VL: not shown
notes: IgG1; also called ST2 Antibody 53
Take B3: binding was characterised by a dissociation constant (Kd) of 740 nM, the koff was 0.12 s⁻¹ and the kon was 160000 M⁻¹ s⁻¹.

B4: Human ST2 IgG1 Antibody 51 (antibody, V domains shown)
VH: QVQLVQSGAEVKKPGSSVKVSCKASGGSFSRSSISWVRQAPGQGLEWMGGIIPIFGAPVYAQDLQGRVTITADESTSTAYMELSSLRSEDTAVYYCARDHPHCSSTSCYYGMDVWGQGTTVTVSS
VL: EIVMTQSPATLSVSPGERATLSCRASQTISSSYLAWYQQKPGQAPRLLIYGASTRATGIPARFSGSGSGTEFTLTISSLQSEDFAVYYCQQYGSSPLTFGGGTKVEIKR
notes: IgG1; also called ST2 Antibody 51
As for B4, the Kd came to 154 nM, the koff was determined as 0.043 s⁻¹ and the kon is 280000 M⁻¹ s⁻¹.

B5: Human ST2 IgG1 Antibody 70 (antibody, V domains shown)
VH: QVQLVQSGAEVKKPGSSVKVSCKASGYAFTDYFIHWVRQAPGQGLEWMGGIIPIFGTANYAQKFQGRVTITADKSTSTAYMELSSLRSEDTAVYYCARVAYGAFDIWGQGTMVTVSS
VL: B4 VL with T28S, I29V, G93N, S94N, S95W
notes: IgG1; also called ST2 Antibody 70
On to B5, for which binding was characterised by a dissociation constant (Kd) of 268 nM, the koff came out at 0.099 s⁻¹ and the kon came to 370000 M⁻¹ s⁻¹.

B6: Human ST2 IgG1 Antibody 52 (antibody, V domains shown)
VH: QVQLVQSGAEVKKPGSSVKVSCKASGGTFSNYAISWVRQAPGQGLEWMGWISAYNGNTNYAQKFQGRVTITADESTSTAYMELSSLRSEDTAVYYCARLSTVTTRPYYYYGMDVWGQGTTVTVSS
VL: DIVMTQSPLSLPVTPGEPASISCRSSQSLLHSNGYNYLDWYLQKPGQSPQLLIYAASSLQGGVPDRFSGSGSGTDFTLKISRVEAEDVGVYYCMQGTHWPTFGQGTKVEIKR
notes: IgG1; also called ST2 Antibody 52
As to B6, binding was put at a Kd of 932 nM, the koff amounted to 0.15 s⁻¹ and the kon amounted to 160000 M⁻¹ s⁻¹.

B7: Human ST2 IgG1 Antibody 64 (antibody, V domains shown)
VH: QVQLVQSGAEVKKPGSSVKVSCKASGYFFTSYGISWVRQAPGQGLEWMGGVIPISGTANYAQSFQGRVTITADESTSTAYMELSSLRSEDTAVYYCARDENGAFDIWGQGTTVTVSS
VL: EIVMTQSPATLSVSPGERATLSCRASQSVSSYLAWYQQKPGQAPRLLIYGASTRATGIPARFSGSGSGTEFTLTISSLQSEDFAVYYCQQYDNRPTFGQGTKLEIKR
notes: IgG1; also called ST2 Antibody 64
With B7, the equilibrium dissociation constant (Kd) was 366 nM, the koff was 0.12 s⁻¹ and the kon was determined as 330000 M⁻¹ s⁻¹.

B8: Human ST2 IgG1 Antibody 58 (antibody, V domains shown)
VH: EVQLLESGAEVKKPGSSVKVSCKASGGTFSSYAISWVRQAPGQGLEWMGGIIPIFGTANYAQKFQGRVTITADKSTSTAYMELSSLRSEDTAVYYCARPRLAVAGGWYFDLWGRGTLVTVSS
VL: DIQMTQSPSSLSASVGDRVTITCQASQDISNYLNWYQQKPGKAPKLLIYAASSLQSGVPSRFSGSGSGTDFTLTISSLQPEDFATYYCQQSFSSTPTFGQGTKLEIKR
notes: IgG1; also called ST2 Antibody 58
As for B8, the affinity, expressed as Kd, was 628 nM; the koff is 0.14 s⁻¹; the kon was determined as 220000 M⁻¹ s⁻¹.

B9: Human ST2 IgG1 Antibody 54 (antibody, V domains shown)
VH: EVQLLESGGGLVQPGGSLRLSCAASGFTVSSNYMSWVRQAPGKGLEWVSAISGSGGSTYYADSVKGRFTISRDNSKNTLYLQMNSLRAEDTAVYYCARGRFGSRDVWGKGTTVTVSS
VL: not shown
notes: IgG1; also called ST2 Antibody 54
In turn, B9 gave a Kd of 81 nM, a koff of 0.029 s⁻¹ and a kon of 360000 M⁻¹ s⁻¹.

B10: Human ST2 IgG1 Antibody 61 (antibody, V domains shown)
VH: QVQLVQSGAEVKKPGSSVKVSCKASGGTFSNYAISWVRQAPGQGLEWMGGIIPVFGTATYAQKFQGRVTITADESTSTAYMELSSLRSEDTAVYYCARVTAMGVGWYFDLWGRGTLVTVSS
VL: DIVMTQSPLSLPVTPGEPASISCRSSQSLLHSNGYNYLDWYLQKPGQSPQLLIYAASSLQSGVPDRFSGSGSGTDFTLKISRVEAEDVGVYYCMQSLQTPPTFGQGTKLEIKR
notes: IgG1; also called ST2 Antibody 61
For B10, the dissociation constant Kd came out at 563 nM, the koff amounted to 0.14 s⁻¹ and the kon amounted to 260000 M⁻¹ s⁻¹.

B11: Human ST2 IgG1 Antibody 63 (antibody, V domains shown)
VH: QVQLVQSGAEVKKPGSSVKVSCKASGGTFSSDAINWVRQAPGQGLEWMGGIVPAFGTANYAQKFQGRVTITADESTSTAYMELSSLRSEDTAVYYCARSSSSWPYYYYYMDVWGKGTTVTVSS
VL: B10 VL with H31L, S32N, Y35N, Y37F, L38I, S58I, S61G, S96A, L109V
notes: IgG1; also called ST2 Antibody 63
B11 displayed a Kd of 96 nM, a koff of 0.043 s⁻¹ and a kon of 450000 M⁻¹ s⁻¹.

B12: Human ST2 IgG1 Antibody 69 (antibody, V domains shown)
VH: QVQLVQSGAEVKKPGASVKVSCKASGYTFSDYYVHWVRQAPGQGLEWMGWISAYNGNTNYAQKLQGRVTMTRDTSTSTVYMELSSLRSEDTAVYYCARGSLDIWFREPGVYMDVWGKGTTVTVSS
VL: B10 VL with S96A, P101I, L109V
notes: IgG1; also called ST2 Antibody 69
Molecule B12 showed a Kd of 71 nM, a koff of 0.029 s⁻¹ and a kon of 410000 M⁻¹ s⁻¹.

B13: Human ST2 IgG1 Antibody 66 (antibody, V domains shown)
VH: QVQLVQSGAEVKKPGSSVKVSCKASGGTFSSNAISWVRQAPGQGLEWMGGIIPIFGTANYAQKFQGRVTITADESTSTAYMELSSLRSEDTAVYYCAGSPTGTPRVVFDYWGQGTLVTVSS
VL: B10 VL with S96A, P101I, K108R
notes: IgG1; also called ST2 Antibody 66
For the molecule B13, binding was put at a Kd of 176 nM, the koff was determined as 0.0028 s⁻¹ and the kon was 16000 M⁻¹ s⁻¹.

B14: Human ST2 IgG1 Antibody 56 (antibody, V domains shown)
VH: EVQLLESGGGLVKPGGSLRLSCAASGFTFSSYAMSWVRQAPGKGLEWVSSISSDSYYKYHADSVKGRFTISRDDSKNTLYLQMNSLKTEDTAVYYCAKGADYDFWSGYLDYWGQGTLVTVSS
VL: DIQMTQSPSSLSASVGDRVTITCRASQGISSYLAWYQQKPGKAPKLLIYRASTLQSGVPSRFSGSGSGTDFTLTISSLQPEDFATYYCQQSYNTPWTFGQSTKVEIKR
notes: IgG1; also called ST2 Antibody 56
Regarding B14, the Kd came to 970 nM, the koff came out at 0.14 s⁻¹ and the kon was 150000 M⁻¹ s⁻¹.

B15: Human ST2 IgG1 Antibody 67 (antibody, V domains shown)
VH: QVQLVQSGAEVKKPGASVKVSCKASGGTFSSYAISWVRQAPGQGLEWMGRINPNSGGTVYAQKFQGRVTMTRDTSTSTVYMELSSLRSEDTAVYYCARDTSIAARLNPDYYYYYGMDVWGQGTTVTVSS
VL: B14 VL with G28S, Y32W, R50A, T53N, N93S, W96V, K103R, V104L
notes: IgG1; also called ST2 Antibody 67
Regarding B15, the Kd came out at 738 nM, the koff came to 0.1 s⁻¹ and the kon was determined as 140000 M⁻¹ s⁻¹.

B16: Human ST2 IgG1 Antibody 57 (antibody, V domains shown)
VH: QVQLVQSGAEVKKPGASVKVSCKASGYTFTGYYMHWVRQAPGQGLEWMGVINPSGGSTSYAQKFQGRVTMTRDTSTSTVYMELSSLRSEDTAVYYCARGDYYYGSGSDYYYYYGMDVWGQGTLVTVSS
VL: DIQMTQSPSSLSASVGDRVTITCRASQGVTSWLAWYQQKPGKAPKLLIYAASTLQSGVPSRFSGSGSGTDFTLTISSLQPEDFATYYCQQANSFPLTFGGGTKVEIKR
notes: IgG1; also called ST2 Antibody 57
For the molecule B16, the Kd is 140 nM, the off-rate constant (koff) is 0.072 s⁻¹ and the kon was determined as 510000 M⁻¹ s⁻¹.

B17: Human ST2 IgG1 Antibody 60 (antibody, V domains shown)
VH: QVQLVQSGAEVKKPGASVKVSCKASGYTFTDHYLHWVRQAPGQGLEWMGIINPSGGYTSHAQKFQGRVTMTRDTSTSTVYMELSSLRSEDTAVYYCARDRFRELLGSRYYGMDVWGQGTTVTVSS
VL: B16 VL with G28D, V29L, T30S, S31N, W32H, A91Y, N92H, S93D, F94W, G100Q
notes: IgG1; also called ST2 Antibody 60
For B17, the affinity, expressed as Kd, was 1100 nM; the koff amounted to 0.12 s⁻¹; the kon is 110000 M⁻¹ s⁻¹.

B18: Human ST2 IgG1 Antibody 59 (antibody, V domains shown)
VH: EVQLLESGGGVVQPGRSLRLSCAASGFTFSSYWMSWVRQAPGKGLEWVSSISSDSSYKYYADSVKGRFTISRDNSKNTLYLQMNSLRAEDTAVYYCARDGLRWDAFDIWGQGTMVTVSS
VL: not shown
notes: IgG1; also called ST2 Antibody 59
Molecule B18 showed a Kd of 1000 nM, a koff of 0.19 s⁻¹ and a kon of 190000 M⁻¹ s⁻¹.

B19: Human ST2 IgG1 Antibody 55 (antibody, V domains shown)
VH: QVQLVQSGAEVKKPGSSVKVSCKASGGTFSSYAISWVRQAPGQGLEWMGDIIPVIDTTNYAQKFQGRVTITADESTSTAYMELSSLRSEDTAVYYCARASGYPFGRWFDPWGQGTLVTVSS
VL: not shown
notes: IgG1; also called ST2 Antibody 55
For B19, the Kd worked out at 349 nM, the koff amounted to 0.1 s⁻¹ and the kon came to 300000 M⁻¹ s⁻¹.

The Kd is the concentration at which binding is half-saturated. Low values mean a tighter complex, high ones a looser complex. As usually defined, the koff is a measure of how fast the partners let go of each other. By kon is commonly meant the second-order rate constant of association. A low value points to slower complex formation.

(Values after patent publication US20210403579A1 (DELINIA, published 2021).)
